Consider three substances from US10087225B2, “Formulation of MK2 inhibitor peptides” (MOERAE MATRIX, INC., priority 2015, dated 2018).

Data set [1] is described as follows: Heat-accelerated stability of MMI-0100 in buffers pH 4-8 (pH, appearance, HPLC assay, impurities). Conditions: in citrate. The source says:
Testing of stability samples included pH (initial only), appearance, HPLC assay and impurities. CC=clear and colorless.

A further data set has as its system HCAVSMCs. Nature of the data set: Flow cytometric uptake and retention of MK2i-NPs and p-HSP20-NPs (30 min treatment). Conditions: 3 days after treatment removal.
For a further data set, the target named is MKK7β(h) (Homo sapiens, UniProt O14733). Nature of the data set: Kinase Profiling Assay. Type of data set: biochemical.
The target in the next data set is Ab1(h) (Homo sapiens, UniProt P00519). Briefly: Kinase Profiling Assay. The format is biochemical. Conditions: 100 μM.
A further data set deals with CHK2(h) (Homo sapiens, UniProt O96017). Nature of the data set: Kinase Profiling Assay. The format is biochemical. Conditions: 100 μM.
The target in the next data set is MEK1(h) (Homo sapiens, UniProt Q02750). Nature of the data set: Kinase Profiling Assay. Conditions: 100 μM. Type of data set: biochemical.
Another data set concerns the target MAPK2(h) (Homo sapiens, UniProt P28482). Nature of the data set: Kinase Profiling Assay. Type of data set: biochemical. Conditions: 100 μM.
Another data set deals with Ab1(Q252H)(h) (Homo sapiens, UniProt P00519, Q252H). Briefly: Kinase Profiling Assay. Type of data set: biochemical. Conditions: 100 μM.
The target of another data set is EGFR(T790M)(h) (Homo sapiens, UniProt P00533, T790M). Briefly: Kinase Profiling Assay. The format is biochemical. Conditions: 100 μM.
The next data set deals with Ab1(Y253F)(h) (Homo sapiens, UniProt P00519, Y253F). Nature of the data set: Kinase Profiling Assay. Type of data set: biochemical. Conditions: 100 μM.
The target in another data set is PDGFRα(D842V)(h) (Homo sapiens, UniProt P16234, D842V). Briefly: Kinase Profiling Assay. The format is biochemical. Conditions: 100 μM.
The target of a further data set is CDK2/cyclinE(h) (Homo sapiens, UniProt P24941). Nature of the data set: Kinase Profiling Assay. Type of data set: biochemical. Conditions: 100 μM.
The target of another data set is T1, CHK1(h) (Homo sapiens, UniProt O14757).
T1 sequence (O14757 1-476): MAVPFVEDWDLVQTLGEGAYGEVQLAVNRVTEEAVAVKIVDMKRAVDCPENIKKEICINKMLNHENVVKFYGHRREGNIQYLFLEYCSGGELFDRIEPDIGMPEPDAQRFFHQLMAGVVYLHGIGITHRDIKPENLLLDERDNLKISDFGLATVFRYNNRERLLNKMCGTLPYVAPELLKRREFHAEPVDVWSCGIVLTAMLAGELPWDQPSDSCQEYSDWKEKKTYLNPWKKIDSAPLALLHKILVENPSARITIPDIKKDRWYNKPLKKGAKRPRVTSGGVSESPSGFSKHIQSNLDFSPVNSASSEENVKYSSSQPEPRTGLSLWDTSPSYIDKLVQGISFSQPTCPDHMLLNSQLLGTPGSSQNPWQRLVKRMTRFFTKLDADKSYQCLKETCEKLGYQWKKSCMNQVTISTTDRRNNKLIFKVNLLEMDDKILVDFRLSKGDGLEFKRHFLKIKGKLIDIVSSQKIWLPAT
Briefly: Kinase Profiling Assay. Type of data set: biochemical. Conditions: 100 μM.

A further data set concerns the target T2, EphA1(h) (Homo sapiens, UniProt P21709).
T2 sequence (P21709 26-976): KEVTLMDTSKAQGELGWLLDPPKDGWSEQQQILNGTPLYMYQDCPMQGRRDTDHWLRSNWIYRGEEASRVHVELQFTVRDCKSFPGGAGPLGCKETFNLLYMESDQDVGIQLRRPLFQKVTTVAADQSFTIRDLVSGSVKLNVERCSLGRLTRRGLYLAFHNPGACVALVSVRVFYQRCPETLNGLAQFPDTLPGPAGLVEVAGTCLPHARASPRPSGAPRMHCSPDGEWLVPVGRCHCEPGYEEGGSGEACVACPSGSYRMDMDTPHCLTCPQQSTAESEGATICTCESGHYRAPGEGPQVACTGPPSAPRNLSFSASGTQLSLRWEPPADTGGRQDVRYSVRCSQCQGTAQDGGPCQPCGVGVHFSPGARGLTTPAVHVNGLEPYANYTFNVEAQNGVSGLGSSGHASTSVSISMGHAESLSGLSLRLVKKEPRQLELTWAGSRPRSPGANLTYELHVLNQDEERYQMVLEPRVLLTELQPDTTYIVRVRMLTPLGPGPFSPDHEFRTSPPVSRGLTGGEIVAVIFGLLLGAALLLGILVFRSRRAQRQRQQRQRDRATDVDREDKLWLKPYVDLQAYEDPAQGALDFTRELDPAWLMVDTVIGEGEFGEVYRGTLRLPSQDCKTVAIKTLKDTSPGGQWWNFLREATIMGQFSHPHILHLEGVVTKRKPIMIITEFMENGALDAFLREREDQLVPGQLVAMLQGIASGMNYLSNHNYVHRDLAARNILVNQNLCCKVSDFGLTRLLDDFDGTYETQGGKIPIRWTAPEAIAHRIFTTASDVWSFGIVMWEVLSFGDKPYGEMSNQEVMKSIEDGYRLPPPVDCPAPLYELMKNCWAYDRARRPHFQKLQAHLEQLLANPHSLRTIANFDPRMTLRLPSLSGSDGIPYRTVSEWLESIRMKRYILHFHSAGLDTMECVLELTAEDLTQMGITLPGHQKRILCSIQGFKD
Briefly: Kinase Profiling Assay. The format is biochemical. Conditions: 100 μM.

Another data set concerns the target PKBγ(h) (Homo sapiens, UniProt Q9Y243). Briefly: Kinase Profiling Assay. The format is biochemical. Conditions: 100 μM.
A further data set concerns the target Tie2(R849W)(h) (Homo sapiens, UniProt Q02763, R849W). Nature of the data set: Kinase Profiling Assay. Conditions: 100 μM. Type of data set: biochemical.
For another data set, the target named is Yes(h) (Homo sapiens, UniProt P07947). Briefly: Kinase Profiling Assay. Type of data set: biochemical. Conditions: 100 μM.
Yes(h), sequence (P07947 whole entry): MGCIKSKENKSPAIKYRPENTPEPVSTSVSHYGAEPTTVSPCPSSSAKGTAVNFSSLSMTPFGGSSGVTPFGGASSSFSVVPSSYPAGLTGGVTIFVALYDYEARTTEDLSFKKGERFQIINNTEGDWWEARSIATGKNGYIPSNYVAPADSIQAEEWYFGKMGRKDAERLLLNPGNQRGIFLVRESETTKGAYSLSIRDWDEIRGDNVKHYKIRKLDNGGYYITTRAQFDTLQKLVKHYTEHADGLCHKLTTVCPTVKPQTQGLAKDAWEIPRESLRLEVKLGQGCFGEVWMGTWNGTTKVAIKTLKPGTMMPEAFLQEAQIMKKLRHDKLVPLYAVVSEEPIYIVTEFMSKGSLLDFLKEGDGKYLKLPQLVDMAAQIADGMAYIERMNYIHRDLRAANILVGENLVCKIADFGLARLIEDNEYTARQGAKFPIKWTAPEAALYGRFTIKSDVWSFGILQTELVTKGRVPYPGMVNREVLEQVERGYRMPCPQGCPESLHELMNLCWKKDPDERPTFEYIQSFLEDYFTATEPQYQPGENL

PDGFRα(D842V)(h), sequence (P16234 24-1089 D842V): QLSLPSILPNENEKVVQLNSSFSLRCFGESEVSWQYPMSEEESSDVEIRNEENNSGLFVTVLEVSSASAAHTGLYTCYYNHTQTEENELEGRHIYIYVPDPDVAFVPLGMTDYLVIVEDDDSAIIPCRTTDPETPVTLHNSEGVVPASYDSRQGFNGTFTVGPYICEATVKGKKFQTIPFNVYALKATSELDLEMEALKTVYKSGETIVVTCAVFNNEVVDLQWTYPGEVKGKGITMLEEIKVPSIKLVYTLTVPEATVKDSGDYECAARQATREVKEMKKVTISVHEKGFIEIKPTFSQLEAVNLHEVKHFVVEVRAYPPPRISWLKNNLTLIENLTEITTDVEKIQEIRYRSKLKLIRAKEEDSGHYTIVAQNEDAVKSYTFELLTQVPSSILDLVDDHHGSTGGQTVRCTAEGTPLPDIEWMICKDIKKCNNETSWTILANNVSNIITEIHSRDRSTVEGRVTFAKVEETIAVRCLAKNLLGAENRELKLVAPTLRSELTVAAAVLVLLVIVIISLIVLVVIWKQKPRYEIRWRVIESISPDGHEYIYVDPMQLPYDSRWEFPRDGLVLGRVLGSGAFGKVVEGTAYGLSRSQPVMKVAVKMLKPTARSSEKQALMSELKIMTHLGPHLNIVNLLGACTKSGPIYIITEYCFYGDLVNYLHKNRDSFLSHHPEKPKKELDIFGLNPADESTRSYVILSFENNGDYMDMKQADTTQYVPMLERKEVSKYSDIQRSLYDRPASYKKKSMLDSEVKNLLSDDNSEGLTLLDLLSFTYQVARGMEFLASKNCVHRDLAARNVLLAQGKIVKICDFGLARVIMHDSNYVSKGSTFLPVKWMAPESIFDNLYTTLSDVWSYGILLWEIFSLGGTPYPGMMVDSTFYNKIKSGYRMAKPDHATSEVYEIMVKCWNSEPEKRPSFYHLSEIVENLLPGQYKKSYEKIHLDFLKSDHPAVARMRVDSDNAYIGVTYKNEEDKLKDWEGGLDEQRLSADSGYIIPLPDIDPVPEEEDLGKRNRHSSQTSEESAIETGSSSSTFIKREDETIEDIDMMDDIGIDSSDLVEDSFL
MKK7β(h), sequence (O14733 whole entry): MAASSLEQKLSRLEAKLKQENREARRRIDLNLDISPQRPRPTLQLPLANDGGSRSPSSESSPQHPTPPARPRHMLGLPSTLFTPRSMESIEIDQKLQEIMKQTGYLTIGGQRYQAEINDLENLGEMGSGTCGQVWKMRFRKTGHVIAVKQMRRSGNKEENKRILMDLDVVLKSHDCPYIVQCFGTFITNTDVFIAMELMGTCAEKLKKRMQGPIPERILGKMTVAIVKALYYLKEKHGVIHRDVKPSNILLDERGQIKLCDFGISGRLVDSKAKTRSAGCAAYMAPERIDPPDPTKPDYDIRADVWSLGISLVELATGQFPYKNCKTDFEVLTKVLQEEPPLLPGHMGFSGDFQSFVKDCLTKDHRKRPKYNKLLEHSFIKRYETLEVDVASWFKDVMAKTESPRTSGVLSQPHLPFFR
MAPK2(h), sequence (P28482 whole entry): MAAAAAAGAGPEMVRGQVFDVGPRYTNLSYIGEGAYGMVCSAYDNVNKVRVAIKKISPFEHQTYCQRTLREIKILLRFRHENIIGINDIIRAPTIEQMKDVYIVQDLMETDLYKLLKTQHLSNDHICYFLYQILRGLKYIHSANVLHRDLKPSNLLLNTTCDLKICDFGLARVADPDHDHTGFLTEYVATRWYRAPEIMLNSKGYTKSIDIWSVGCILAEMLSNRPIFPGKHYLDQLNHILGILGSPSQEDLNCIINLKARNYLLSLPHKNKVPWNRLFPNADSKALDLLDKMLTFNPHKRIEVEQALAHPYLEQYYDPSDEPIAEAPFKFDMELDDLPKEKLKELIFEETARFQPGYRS
PKBγ(h), sequence (Q9Y243 whole entry): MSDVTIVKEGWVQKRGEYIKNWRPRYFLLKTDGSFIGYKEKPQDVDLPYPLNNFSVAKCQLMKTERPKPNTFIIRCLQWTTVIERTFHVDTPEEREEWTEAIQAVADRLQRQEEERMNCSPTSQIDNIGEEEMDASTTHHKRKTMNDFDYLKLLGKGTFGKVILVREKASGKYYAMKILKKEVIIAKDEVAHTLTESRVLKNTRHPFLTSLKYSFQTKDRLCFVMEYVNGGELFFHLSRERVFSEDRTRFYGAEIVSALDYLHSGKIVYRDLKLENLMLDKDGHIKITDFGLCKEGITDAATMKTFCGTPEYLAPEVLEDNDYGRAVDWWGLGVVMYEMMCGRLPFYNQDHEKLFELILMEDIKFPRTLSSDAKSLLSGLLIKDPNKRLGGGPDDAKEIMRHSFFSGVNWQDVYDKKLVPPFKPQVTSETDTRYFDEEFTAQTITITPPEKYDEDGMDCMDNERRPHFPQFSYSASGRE
CHK2(h), sequence (O96017 whole entry): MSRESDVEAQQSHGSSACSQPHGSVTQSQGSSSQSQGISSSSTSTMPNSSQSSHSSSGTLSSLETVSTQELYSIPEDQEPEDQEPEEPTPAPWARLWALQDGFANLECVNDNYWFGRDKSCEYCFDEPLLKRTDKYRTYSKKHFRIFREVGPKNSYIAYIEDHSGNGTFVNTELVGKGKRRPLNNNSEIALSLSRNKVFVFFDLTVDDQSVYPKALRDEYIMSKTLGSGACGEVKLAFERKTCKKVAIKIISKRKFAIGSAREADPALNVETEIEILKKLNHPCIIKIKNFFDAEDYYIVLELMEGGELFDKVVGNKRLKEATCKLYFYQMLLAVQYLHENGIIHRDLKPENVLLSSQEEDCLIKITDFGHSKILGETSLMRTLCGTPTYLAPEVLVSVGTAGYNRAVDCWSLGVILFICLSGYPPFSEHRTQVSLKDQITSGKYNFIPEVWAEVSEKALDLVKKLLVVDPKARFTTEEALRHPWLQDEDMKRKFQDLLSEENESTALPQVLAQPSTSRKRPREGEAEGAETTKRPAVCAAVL
Tie2(R849W)(h), sequence (Q02763 23-1124 R849W): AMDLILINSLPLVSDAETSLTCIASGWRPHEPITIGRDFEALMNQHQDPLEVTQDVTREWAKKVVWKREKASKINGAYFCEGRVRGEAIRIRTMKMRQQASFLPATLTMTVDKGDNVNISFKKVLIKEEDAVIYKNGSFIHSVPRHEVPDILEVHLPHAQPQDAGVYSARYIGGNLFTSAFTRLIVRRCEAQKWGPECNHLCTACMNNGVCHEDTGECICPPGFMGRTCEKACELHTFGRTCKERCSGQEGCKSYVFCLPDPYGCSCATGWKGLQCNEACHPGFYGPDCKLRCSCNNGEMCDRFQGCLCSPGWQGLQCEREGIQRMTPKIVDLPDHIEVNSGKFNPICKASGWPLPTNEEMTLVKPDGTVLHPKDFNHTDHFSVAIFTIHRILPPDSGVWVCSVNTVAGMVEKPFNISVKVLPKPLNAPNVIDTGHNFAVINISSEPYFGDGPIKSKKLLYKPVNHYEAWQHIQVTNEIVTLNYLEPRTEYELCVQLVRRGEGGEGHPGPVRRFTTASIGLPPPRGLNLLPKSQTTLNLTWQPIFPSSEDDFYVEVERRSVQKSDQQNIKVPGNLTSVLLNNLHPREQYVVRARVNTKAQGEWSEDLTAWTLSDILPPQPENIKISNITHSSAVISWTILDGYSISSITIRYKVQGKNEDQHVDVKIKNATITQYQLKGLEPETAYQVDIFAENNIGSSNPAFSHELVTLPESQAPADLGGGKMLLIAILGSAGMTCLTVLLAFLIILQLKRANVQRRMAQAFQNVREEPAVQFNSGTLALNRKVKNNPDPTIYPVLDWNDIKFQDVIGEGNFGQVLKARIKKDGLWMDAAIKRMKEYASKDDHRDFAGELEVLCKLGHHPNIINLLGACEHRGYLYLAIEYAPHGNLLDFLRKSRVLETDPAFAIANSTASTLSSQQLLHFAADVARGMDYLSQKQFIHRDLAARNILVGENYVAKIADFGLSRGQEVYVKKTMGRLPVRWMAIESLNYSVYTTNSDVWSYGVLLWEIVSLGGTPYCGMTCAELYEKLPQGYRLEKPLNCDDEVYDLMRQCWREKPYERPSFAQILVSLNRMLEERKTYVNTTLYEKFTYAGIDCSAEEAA
Procedure for HCAVSMCs: For MK2i-NP and HSP20-NP studies, An amine-reactive Alexa-488 succinimidyl ester (Life Technologies) was dissolved in DMSO and mixed at a 1 to 3 molar ratio with the MK2i or p-HSP20 peptide in 100 mM sodium bicarbonate buffer (pH=8.3) and allowed to react for 3 hours. Unreacted fluorophore and organic solvent were removed using a PD-10 miditrap G-10 desalting column, and the fluorescently labeled MK2i and p-HSP20 peptides were lyophilized. […] Similarly, PPAA was mixed with fluorescently labeled p-HSP20 at a CR of [NH3^+]/[COO^−]=1:3 and syringe filtered through a 0.45 μm PTFE filter to form fluorescent HSP20-NPs. HCAVSMCs were grown to 80-90% confluence, harvested, and seeded at 20,000 cells/well in a 24 well plate and allowed to adhere overnight. […] Following treatment, cells were washed 2× in PBS, and either immediately harvested or incubated in complete growth media for an additional 72 hours. Cells were harvested with 0.05% trypsin-EDTA, centrifuged, and suspended in 0.1% Trypan blue in PBS (−/−) for analysis on a FACSCalibur flow cytometer (Becton Dickinson) with BD CellQuest™ Pro software (V 5.2). Data was exported and analyzed with FlowJo software (V 7.6.4). All samples were run in triplicate.

Consider H-YARAAARQARAKALARQLGVAA-OH [MMI-0100], for which, in data set [1], the “pH of greatest stability” value came to 6. Besides, in the data set with HCAVSMCs, the “intracellular peptide retention (% of initial uptake remaining)” value is 54%. The activity at 100 µM on MKK7β(h) was 137%.

Consider “HRRIKAWLKKIKALARQLGVAA (Mammalian) [MMI-0500]”, for which the “% activity” value in the data set with Ab1(h) worked out at 16%; in the data set with CHK2(h), 13%; with MEK1(h), 21%; with MAPK2(h) it was 60%; with Ab1(Q252H)(h), 40%; in the data set with EGFR(T790M)(h), 70%. In addition, the “% activity” value with Ab1(Y253F)(h) is reported as 29%; with PDGFRα(D842V)(h), 170%; in the data set with CDK2/cyclinE(h) it was 19%; with CHK1(h), 65%; with EphA1(h) it was 40%; with PKBγ(h), 20%.

For “YARAAARQARAKALNRQLGVA (Mammalian) [MMI-0200]”, the “% activity” value was found to be 89% with Tie2(R849W)(h) and 93% in the data set with Yes(h).
